The record followed here is patent US20050065320A1.

Some results are limits rather than exact numbers.

In assay [1] the target is g12 mutant (Env protein) of the HIV-1 isolate 133 (HIV-1 primary isolate 133). The assay is described as follows: capture ELISA, 17b 1 µg/ml. (In general: An ELISA detects its analyte on a solid surface through an enzyme-linked reagent.)
The target is the same in assay [2]. Briefly: capture ELISA on lysates and supernatants, F105 1 µg/ml.

Substance 17b human monoclonal antibody registered a signal relative to the native protein in assay [1] of 3 times. Take F105 human monoclonal antibody (NIBSC): the signal relative to the native protein in assay [2] is under 4.5 times.
